Here are results for eight molecules from patent US11795488B2, “Methods for enzymatic peptide ligation” (NANYANG TECHNOLOGICAL UNIVERSITY, priority 2016, dated 2023).

A short description of data set [1]: Proteolytic and protein ligation activity of AEP_C13C04. It is filed as biochemical. From the text:
Based on the prediction of the sequence alignment, AEP_C13C04 contained the conserved structural motif identical to Quicklase (247-264). […] The cDNA of AEP_C13C04 was then subsequently synthesized and subcloned into pet28b in a similar way as Quicklase.

Data set [2] relates to OaAEP1. Kind of data set: Self-activation (acid-induced self-cleavage) of OaAEP1 and mutants, SDS PAGE. The format is biochemical, Oldenlandia affinis. To be noted: for self-activation (auto-activation): acidic pH. As to the method: To self-activate OaAEP1, 1 mM EDTA and 0.5 mM Tris (2-carboxyethyl) phosphine hydrochloride were added to the immature protein and the pH of the solution was adjusted to 4 with glacial acetic acid. Fractions containing the protein (as analyzed by SDS-PAGE) were pooled and then incubated for 3 to 16 hours at room temperature or 37° C. Protein precipitation at this pH allowed removal of the bulk of the contaminating proteins by centrifugation. Activated proteins were concentrated by ultracentrifugation using a 50 kDa cutoff concentrator (Sartorius) and stored at −80° C.
OaAEP1 was cloned and expressed in E. coli as an ubiquitin fusion protein as reported earlier (FIG. 2) (Harris, K. S., et al., Nat Commun, 2015. 6: p. 10199). Using ion exchange and size exclusion chromatography (SEC), sufficient amounts of pure protein suitable for enzymatic and structural analysis were obtained (FIG. 2B). At the neutral pH of purification (pH=7.4), OaAEP1 was mainly present as a heterodimer, where both monomers are in their zymogenic form, but only one monomer had retained in addition the ubiquitin and N-terminal His-tag, while the fusion moiety was cleaved in the other monomer (labeled as “His-Ub-AEP-FL” and “AEP-FL” in FIG. 2B and FIG. 2C). This heterodimer was subjected to crystallization trials for structural studies (see below). In agreement with reference (Harris, K. S., et al., Nat Commun, 2015. 6: p. 10199), activation of OaAEP1 was optimum for pH values in the range of 3.4-4.0 (FIG. 2D). Following activation, OaAEP1 converts to a monomer in solution according to SEC analysis (“AEP-holo” in FIG. 2C). To test the ability of the protein to be activated in trans, the catalytic residue Cys217 was mutated into Ser217.
Since the crystallization conditions are compatible with OaAEP1 activation, the present crystal structure is likely to have captured one of the conformational states occurring along the activation pathway. To determine whether Gln347 belongs to the segment recognized and cleaved during self-activation, mutagenesis experiments targeting region 346-351 of the OaAEP1 protein were performed (FIG. 4C). The role of Gln347 in OaAEP1 auto-activation was particularly assessed by mutating this residue to Ala, and whether enzyme activation was abolished was examined. Only little impact was found on the mutant enzyme activation (FIG. 4C). Residues Asn346, Asp349 and Asp351 that are next to Gln347 were then targeted. […] Thus, trans-activation requires the presence of at least one of the four Asx/Gln residues (with a slight preference for Asp349 or Asp351) found in this segment of the linker.

Data set [3] deals with OaAEP1. Kind of data set: Trans-activation of inactive mutants by wild type OaAEP1. It is filed as biochemical, Oldenlandia affinis. From the text: (a) Schematic illustration of the His-Ub-OaAEP1 construct used with the boundaries of the three regions of the protein indicated and the deduced activation segment. 6-His tag and Ubiquitin tag followed by OaAEP1 (24-474) was synthesized and inserted into pET28b vector. After Ni-NTA affinity purification, about half of Ub-AEP-FL lost the N-terminal fusion tags and was purified in AEP-FL form (53-474), which was eventually crystallized. The enzymatic active form of OaAEP1b, AEP-holo (53-347/351) is the acidic induced self-cleavage product of AEP-FL, which lost the C-terminal auto inhibitory cap domain. (b) SDS PAGE analysis of fractions obtained over the course of chromatographic purification and of dissolved crystals. (c) Size-exclusion chromatography profiles of OaAEP1 before and after activation showing Ub-AEP-FL and AEP-FL heterodimer and the AEP-holo monomer. The elution volumes of standard proteins are indicated for comparison. (d) SDS PAGE analysis of OaAEP1 pH-dependent activation. The activation was performed for 3 hours, and the peak of activation is in between pH 3.4 to 4.
OaAEP1 was cloned and expressed in E. coli as an ubiquitin fusion protein as reported earlier (FIG. 2) (Harris, K. S., et al., Nat Commun, 2015. 6: p. 10199). Using ion exchange and size exclusion chromatography (SEC), sufficient amounts of pure protein suitable for enzymatic and structural analysis were obtained (FIG. 2B). […]
Since the crystallization conditions are compatible with OaAEP1 activation, the present crystal structure is likely to have captured one of the conformational states occurring along the activation pathway. […] The role of Gln347 in OaAEP1 auto-activation was particularly assessed by mutating this residue to Ala, and whether enzyme activation was abolished was examined. […]

The next data set deals with peptide substrate. Put plainly: Comparison of cyclization efficiency of gate-keeper Cys247 mutants (MALDI-TOF MS). It is filed as biochemical. As to the method: Native and modified amino acids were purchased from Sigma-Aldrich (USA). All peptides used in this manuscript were synthesized in-house using the solid-phase method and HPLC purified. Cyclization assays were performed in 50-μl reaction mixtures containing 20 mM phosphate buffer, ligases (5 to 700 nM) and peptide substrates (10 to 300 μM). Each reaction was performed in triplicate at 37° C. and quenched by adding 5 μl of 1 M HCl solution. The peptides were separated by using a reversed-phase C18 analytical column (150×2.1 mm, Vydac) with a linear gradient from 10% to 50% acetonitrile over 15 min on a Nexera UHPLC system (Shimadzu). For kinetic analysis, the concentrations of WT OaAEP1, mutant OaAEP1, and butelase 1 were fixed at 700 nM, 50 nM, and 20 nM, respectively. The cyclization velocities were calculated by converting the HPLC-peak areas of remained linear precursors or the cyclized products into concentrations. The identity of each HPLC peak was analyzed by MALDI-TOF MS (ABI 4800 MALDI TOF/TOF). The velocities were input into GraphPad Prism (GraphPad Software, San Diego) to obtain the Michaelis-Menten curve and the kinetic parameters (kcat and Km). Comparison for the cyclization efficiency of various OaAEP1 mutants were performed in a volume of 20 μl of the reaction mixture and analyzed by MALDI-TOF MS after 10 mins or 1 hour ligation reaction.
The pre-ligation conformation of OaAEP1 captured in the present structure was then analyzed to identify several key features that could differentiate an AEP protease from an AEP-like ligase. […] In contrast to AEP proteases, the surface of OaAEP1 facing the catalytic Cys217 appears to be more widely open. Three cysteine residues (Cys247, Cys250, Cys264) are aligned along a shallow cleft at the surface of the enzyme (FIGS. 3C and 3E). Unlike the surface of AEP proteases that contains several bulges, both butelase 1 (using a homology model based on OaAEP1b) and OaAEP1 have residues with smaller side-chains along this patch. A disulfide bond is formed between Cys250 and Cys264, which are conserved in AEP-like ligases butelase 1 and OaAEP1b. This covalent bond is likely to stabilize the local structure and provide an adequate surface allowing the approach of an N-terminal amine incoming group. Conversely, the corresponding surface patch of AEP proteases (PDB: 4AWA) is lined with residues having bulky side-chains like Tyr (FIG. 3E) blocking this channel. It was therefore hypothesized that residue Cys247 which is located at the extremity of the substrate channel is likely to function as a final nucleophile filter (or “gate-keeper”), allowing attack from the N-terminal amine to complete the ligation reaction. […]

Where a chain is given by its changes, count along the chain named. Where two headings read alike, the source gives them in different places.

B1: AEP_C13C04: Peptidase C13, legumain [OMO86616.1] from Corchorus olitorius, SEQ ID NO:8 (protein, listed as Corchorus olitorius)
chain: MTRLVAGVILLLLSVTGIASAGRDATGDVLRLPSEASRFFRPSDDDEVGTRWAVLIAGSNGYWNYRHQADVCHAYQLLKKGGLKDENIIVFMYDDIAFNYENPRQGIIINSPHGDDVYQDVPKDYTGEEVTVHNFLAAILGNKTAIKGGSGKVVDSGPNDHIFIYYTDHGGPGVLGMPTYPYLYADELIDTLKKKHASGTYKSLVFYLEACESGSIFEGLLPEGLNIYATTASNADESSWGTYCPGEYPSPPPEYETCLGDLYSVAWMEDSDLHNLRTETLHQQYELVKRRTLNGNSAYGSHVMQYGDVGLAKEHLFLYLGTNPANDNFTFIDENSLQPPAKAVNQRDADLVHFWDKYRKAPDGSVRKVEAQKQVVEAMSHRMHVDNSIQLIGKLLFGIERGADVLKTVRPAGQPLVDDWKCLKSMVRTFETHCGSLAQYGMKHMRSIANICNAGIQTEQMAEASSQACVSIPSGQWSSIQKGFSA
For the molecule B1, in data set [1], the byproducts entry is “significant byproducts of proteolytic reactions”; the “proteolytic and protein ligation activities” value was “exhibited both proteolytic and protein ligation activities”. Besides, the “proteolytic and protein ligation activities” value in data set [1] (listed as AEP_C13CO4) is listed as “is a peptide ligase having the activity of OaAEP1 Cys247Ala”. Besides, the “enzymatic catalytic efficiency compared with Quicklase” value in data set [1] (wild type AEP_C13C04) was “much slower”.

B2: Cys217Ser (protein)
chain: MVRYLAGAVLLLVVLSVAAAVSGARDGDYLHLPSEVSRFFRPQETNDDHGEDSVGTRWAVLIAGSKGYANYRHQAGVCHAYQILKRGGLKDENIVVFMYDDIAYNESNPRPGVIINSPHGSDVYAGVPKDYTGEEVNAKNFLAAILGNKSAITGGSGKVVDSGPNDHIFIYYTDHGAAGVIGMPSKPYLYADELNDALKKKHASGTYKSLVFYLEASESGSMFEGILPEDLNIYALTSTNTTESSWCYYCPAQENPPPPEYNVCLGDLFSVAWLEDSDVQNSWYETLNQQYHHVDKRISHASHATQYGNLKLGEEGLFVYMGSNPANDNYTSLDGNALTPSSIVVNQRDADLLHLWEKFRKAPEGSARKEEAQTQIFKAMSHRVHIDSSIKLIGKLLFGIEKCTEILNAVRPAGQPLVDDWACLRSLVGTFETHCGSLSEYGMRHTRTIANICNAGISEEQMAEAASQACASIP
Regarding B2, the “activation and ligase activity of active site mutant” value with OaAEP1 [2] was “only displayed background level activation and ligase activity”. In addition, the “activation in trans by wild type OaAEP1” value in the data set on OaAEP1 [3] is reported as “could be rescued in trans by addition of only 10% of wild type OaAEP1”.

B3: Cys217Ala (protein)
chain: B2 chain with S217A
Take B3: in the data set on OaAEP1 [2], the “self-activation (auto-activation)” value is recorded as “devoid of self-activation activity”. For the same molecule, in the data set on OaAEP1 [3], the “activation in trans by wild type OaAEP1” value was “trans-cleavage and activation of most of the AEP-FL Cys217Ala after 18 hours”.

B4: Asp349Ala-Asp351Ala (protein)
chain: B2 chain with S217C, D349A, D351A
For the molecule B4, in the data set on OaAEP1 [2], the “self-activation (auto-activation)” value is given as “can still be activated”.

B5: Asn346Ala-Asp349Ala-Asp351Ala (protein)
chain: B2 chain with S217C, N346A, D349A, D351A
As for B5, the “self-activation (auto-activation)” value in the data set on OaAEP1 [2] is “can still be activated”; in the data set with OaAEP1 [2] (listed as A3), “more severe loss of function phenotype”.

B6: Asn346Ala-Gln347Ala (protein)
chain: B2 chain with S217C, N346A, Q347A
With B6, the “self-activation (auto-activation)” value with OaAEP1 [2] is “can still be activated”.

B7: Cys247Gly: OaAEP1 gate-keeper mutant Cys247 to Gly (protein)
chain: B2 chain with S217C, C247G
In the case of B7, in the data set on peptide substrate (N-terminal amine group acetylated), the “alternative reaction when N-terminal amine is not available” value was “catalyzes peptide hydrolysis as alternative reaction”. In addition, in the data set with peptide substrate (gate-keeper position 247 mutants), the “ligase activity compared to WT OaAEP1” value is on record as “negatively affects the ligase activity”.

B8: Asn346Ala-Gln347Ala-Asp349Ala-Asp351Ala (protein)
chain: B2 chain with S217C, N346A, Q347A, D349A, D351A
Turning to B8, the results for the “self-activation (auto-activation)” value in the data set with OaAEP1 [2] and with OaAEP1 [2] (listed as A4) were “most significantly impaired auto-activation activity” and “more severe loss of function phenotype”, respectively. Besides, in the data set with OaAEP1 [3], the “activation in trans by wild type OaAEP1” value is recorded as “could not be rescued in trans”.
